The record followed here is paper doi:10.1101/2024.09.05.611400.

One may read the Ki as the equilibrium dissociation constant of an inhibitor or competing ligand from its target.

This assay has as its target SARS-CoV-2 main protease (M^pro), commercial recombinant (rcM^pro) (SARS-CoV-2) (UniProt P0DTD1). The assay can be described thus: enzyme inhibition assay.

Consider PPACK (D-Phe-Pro-Arg-CH2Cl) (peptide), for which the Ki stood at 0.16 µM.
